Reference: article doi:10.1101/2025.02.09.637349 (bioRxiv, 2025)

Target: the molecule itself
Assay: cryo-EM structure

B1: Thermochromatium tepidum form-IAq RuBisCO large subunit (RbcL) (natural protein, UniProt A0A6I6DX30 1-472, looked up)
chain: MAKTYSAGVKEYRETYWMPNYTPKDTDILACFKITPQPGVPREEAAAAVAAESSTGTWTTVWTDLLTDLDYYKGRAYAIEDVPGDDTCFYAFIAYPIDLFEEGSVVNVFTSLVGNVFGFKAVRALRLEDVRFPIAYVMTCNGPPHGIQVERDILNKYGRPLLGCTIKPKLGLSAKNYGRAVYECLRGGLDFTKDDENVNSQPFMRWRQRFDFVMEAIDKAERETGERKGHYLNVTAPTPEEMYKRAEYAKEIGAPIIMHDYITGGFCANTGLAQWCRNNGVLLHIHRAMHAVLDRNPHHGIHFRVLTKILRLSGGDHLHTGTVVGKLEGDRQATLGWIDLLRESYVKEDRSRGIFFDQDWGAMPGAFAVASGGIHVWHMPALVTIFGDDSVLQFGGGTLGHPWGNAAGACANRVALEACIEARNQGIPIEKEGKEVLTKAAAHSPELKIAMETWKEIKFEFDSVDKLDVAHK
In the case of B1, the “stoichiometry N” value is reported as 8.
